Experiment [1] addresses T1, P-selectin on thrombin-activated human platelets (human, UniProt P16109 42-830).
T1 construct: whole, on cells
T1 sequence (looked up): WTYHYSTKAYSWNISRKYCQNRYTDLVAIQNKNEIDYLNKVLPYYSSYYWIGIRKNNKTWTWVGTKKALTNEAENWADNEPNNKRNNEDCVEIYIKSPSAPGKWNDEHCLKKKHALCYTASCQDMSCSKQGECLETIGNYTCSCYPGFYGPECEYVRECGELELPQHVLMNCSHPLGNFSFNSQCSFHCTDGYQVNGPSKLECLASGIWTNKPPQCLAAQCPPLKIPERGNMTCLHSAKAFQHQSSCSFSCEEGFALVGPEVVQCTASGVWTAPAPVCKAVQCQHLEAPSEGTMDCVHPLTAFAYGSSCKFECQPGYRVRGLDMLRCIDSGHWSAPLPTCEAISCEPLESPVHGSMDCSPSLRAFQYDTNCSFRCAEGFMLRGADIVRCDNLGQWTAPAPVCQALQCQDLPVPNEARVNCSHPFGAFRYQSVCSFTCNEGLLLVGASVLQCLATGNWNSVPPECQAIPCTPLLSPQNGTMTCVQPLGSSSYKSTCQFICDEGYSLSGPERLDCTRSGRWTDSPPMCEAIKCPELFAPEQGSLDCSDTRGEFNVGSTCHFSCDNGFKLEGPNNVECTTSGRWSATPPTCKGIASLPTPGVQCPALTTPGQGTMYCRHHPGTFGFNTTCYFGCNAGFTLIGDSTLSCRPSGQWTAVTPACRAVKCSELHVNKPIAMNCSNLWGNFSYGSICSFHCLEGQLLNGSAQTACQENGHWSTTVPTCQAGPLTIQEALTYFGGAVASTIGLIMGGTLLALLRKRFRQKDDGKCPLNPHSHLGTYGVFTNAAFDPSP
In words: ELISA on plate-coated thrombin-activated human platelets. How it is done: The ability of purified HuSZ51-DSPAalpha1 to bind specifically to human or dog thrombin-activated platelets in vitro was investigated by ELISA. 96-Well plates were coated with a 100 μl solution containing 1×10⁶ thrombin-activated human or dog platelets per well and incubated overnight at 4° C. The coated plates were washed once with washing solution (PBS, pH 7.4 plus 0.05% Tween-20), and then incubated with 200 μl blocking solution (5% milk prepared in PBS) per well at 37° C. for 2 hours. The blocked plates were washed 3 times with washing solution, and then incubated with 100 μl washing solution containing various amounts of HuSZ51-DSPAalpha1, SZ51, or human IgG1 for 1 hour at 37° C. The plates were washed 3 times with washing solution, and then incubated with peroxidase-conjugated protein L (Pierce) for 1 hour at 37° C. The plates were washed 4 times with washing solution, and then incubated with 100 μl of TMB/E substrate (ZYMED) for 5 minutes at room temperature. The perioxidase reactions were stopped by the addition of 100 μl 1 N HCl, and the plates were read for absorbance at 450 nm within 5 minutes.
(ELISA stands for enzyme-linked immunosorbent assay.)

Experiment [2] has as its target T2, recombinant human P-selectin (R&D Systems) (human, UniProt P16109 42-771).
T2 construct: extracellular domain; also called recombinant soluble P-selectin; recombinant P-selectin
T2 sequence (looked up): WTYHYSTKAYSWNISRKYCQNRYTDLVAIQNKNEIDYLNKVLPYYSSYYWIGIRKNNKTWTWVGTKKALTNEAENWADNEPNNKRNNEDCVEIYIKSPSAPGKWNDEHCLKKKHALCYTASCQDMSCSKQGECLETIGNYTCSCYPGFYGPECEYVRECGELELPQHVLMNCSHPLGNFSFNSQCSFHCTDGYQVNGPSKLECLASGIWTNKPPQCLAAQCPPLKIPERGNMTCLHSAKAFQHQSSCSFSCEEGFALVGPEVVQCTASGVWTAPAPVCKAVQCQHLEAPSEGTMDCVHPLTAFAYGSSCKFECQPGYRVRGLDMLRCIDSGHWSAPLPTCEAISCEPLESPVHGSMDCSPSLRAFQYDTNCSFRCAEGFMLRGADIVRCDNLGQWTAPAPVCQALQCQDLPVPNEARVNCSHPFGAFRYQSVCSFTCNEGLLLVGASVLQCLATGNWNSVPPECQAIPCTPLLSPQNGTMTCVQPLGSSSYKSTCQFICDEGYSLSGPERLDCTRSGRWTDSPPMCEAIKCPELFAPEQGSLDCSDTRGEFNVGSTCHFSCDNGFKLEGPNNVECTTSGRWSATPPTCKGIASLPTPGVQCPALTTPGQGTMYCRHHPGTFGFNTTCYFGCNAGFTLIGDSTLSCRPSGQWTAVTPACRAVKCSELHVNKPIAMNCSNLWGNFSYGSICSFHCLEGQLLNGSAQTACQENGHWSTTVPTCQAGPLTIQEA
In words: recombinant soluble P-selectin (0-40 ng) after SDS-PAGE on nitrocellulose, detection with HRP goat anti-human Fc. How it is done:
1. Binding of HuSZ51-DSPAalpha1 to P-selectin on a nitrocellulose membrane. The indicated amounts of recombinant soluble P-selectin (R&D systems), 0, 5, 10, 20, or 40 ng, along with 10 ng of human IgG1, were separated on SDS-PAGE gels and then transferred onto nitrocellulose membranes. One membrane was incubated with HuSZ51, and the second was incubated with HuSZ51-DSPAalpha1. After washing, bound HuSZ51 or HuSZ51-DSPAalpha1 was detected by HRP-conjugated goat anti-human Fc. The intensity of human IgG1 lane, which is also detected by HRP-conjugated goat anti-human Fc was used as a normalization control.

This is an account of results in patent US20090286721A1 (published 2009).

B1: SZ51, murine anti-P-selectin monoclonal antibody (antibody, V domains shown)
VH: QVQLLESGPELKKPGETVKISCKASGYTFTNYGMNWVKQAPGKGLKWMGWINTYTGEPIYADDFKGRFAFSLETSASTAHLQINSLKNEDMATYFCARGRGGNAMDYWGQGTSVTVSS
VL: ELQMTQSPSSLSASVGDRVTISCSASQDISNYLNWYQQKPDGPVKLLIYYTTSNLHSGVPSRFSGSGSGTDYSLTISNLEPEDIATYYCQQYNKVPWTFGGGTKLEIKR
notes: Variable region DNA in GenBank gi:4099282 (heavy) and gi:4099284 (light); also called parental monoclonal antibody SZ51; anti-P-selectin mouse monoclonal antibody
On to B1, for which, in experiment [1], the binding result was “binds”.

B2: HuSZ51, chimeric mouse-human anti-P-selectin monoclonal antibody (antibody, human IgG1, V domains shown)
VH: B1 VH
VL: B1 VL
With B2, the binding result in experiment [2] is “binds”.
